Measurements from the supplement of paper PMC9170038.

Tested on: MS2 coat protein
Experiment: apparent KD of MS2 coat protein; designed switch direction (-1 OFF switch, 1 ON switch): 1; higher = weaker reporter binding
Summary of the method: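 The reported apparent KD is a per-design median over clusters, from curve fits of normalised cluster fluorescence. Protein titrations used SNAP-549-labelled MS2 coat protein, doubled from 0.7 or 1.5 nM to 3 µM, in Tris-HCl pH 7.5 buffer with KCl, MgCl2, BSA, DTT, tRNA and Tween-20, with no input, 200 uM small-molecule ligand, or an oligonucleotide input. The RNA switches were transcribed on Illumina chips by stalled E. coli RNA polymerase.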

[1] = Eterna round: R95, input ligand: FMN 200 uM
[2] = Eterna round: R95, input ligand: microRNA oligo, concentration not stated
[3] = Eterna round: R95, input ligand: none
[4] = input ligand: microRNA oligo, concentration not stated

| Sequence | apparent KD of MS2 coat protein [1] | apparent KD of MS2 coat protein [2] | apparent KD of MS2 coat protein [3] | apparent KD of MS2 coat protein (input ligand: FMN 200 uM) | apparent KD of MS2 coat protein [4] | apparent KD of MS2 coat protein (input ligand: none) |
| --- | --- | --- | --- | --- | --- | --- |
| GAUAAACAUGAGGAUCACCCAUGUAAUAAUAUGGGAGGAUAUCAGAAUGUAUGUAUGUAAUGAGAAGGCCUAAUAG [Mat - Same State 1 - Mod of Eli - D72] (puzzle: Same State 1) | 76.7 nM | 229 nM | 391 nM |  |  |  |
| GAUAAACAUGAGGAUCACCCAUGUGUGAAUAUGGGAGGAUAUACGUGGACCGUAGUCCGCGUAGAAGGCCUAAUUG [Mat - Same State 1 - Mod of JL - D20] (puzzle: Same State 1) |  | 166 nM |  |  |  |  |
| GAUUAACAUGAGGAUCACCCAUGUCGUUAAAUGGGAGGAUAUACGUGGACCGUAGUCCGCGUAGAAGGCCUAAUUG [Mat - Same State 1 - Mod of JL - D22] (puzzle: Same State 1) |  | 101 nM |  |  |  |  |
| GAUUAACAUGAGGAUCACCCAUGUGUGAAUAUGGGAGGAUAUACGUGGACCGUAGUCCGCGUAGAAGGCCUAAUUG [JL-ss1-3.20 janelle mod] (puzzle: Same State 1) |  | 223 nM |  |  |  |  |
| GCACUCCUAGGAGCUGCGACAUGAGGAUCACCCAUGUAAUCACAGGAUAUGCAAUUCUGAAUUUUGCAGAAGGGUGAUAGGAAA [Zausorbi] (Eterna round: R96, puzzle: Same State NG 3) |  |  |  | 413 nM | 270 nM | 263 nM |
| GCAGGACAUGAGGAUCACCCAUGUCUCAAAUAUUGAGGAUAUGGACACGGUAUAUCCGAACCAGAAGGCAACCUGC [SS1 Teenbexe 20] (Eterna round: R96, puzzle: Same State 1) |  |  |  | 38.9 nM | 31.5 nM | 43.7 nM |
| GCAGGACAUGAGGAUCACCCAUGUCUCAAAUAUUGAGGAUAUGGACACGGUAUAUCCGAACCAGAAGGCAACCUGC [SS1 Teenbexe 20] (puzzle: Same State 1) |  | 47.3 nM |  |  |  |  |
| GCAGGACGAUAAUAUAUCUCACAUGAGGAUCACCCAUGUCGUGAGGAUAUGGAUCCUAAUUGGAUCCAGAAGGCAUGGUCCUGC [Fiskers NG3ss - 31] (Eterna round: R96, puzzle: Same State NG 3) |  |  |  | 18.5 nM | 14.2 nM | 20.7 nM |
| GCAGGACGAUAAUAUAUCUUCACAUGAGGAUCACCCAUGUCUCAGGAUAUGGAUCCUAAUUGGAUCCAGAAGGGAGCGUCCUGC [Fiskers NG3ss - 33] (Eterna round: R96, puzzle: Same State NG 3) |  |  |  | 33.2 nM | 43.3 nM | 54.4 nM |
| GCAGUACUAGCAGAGGAUAUGUCGGUAACGACAUGAGGAUCACCCAUGUGUACGAAAGUGCUCAGACAGAAGGCUGAGUACUGCU [Same State 2 - Hyphema v.1] (puzzle: Same State 2) | 17.8 nM | 58.4 nM | 78.4 nM |  |  |  |
| GCCAACUAAUGAGGAUAUGGCACCUUAUUGGUGCCAGAAGGCAUGUCAAUUGACAUGAGGAUCACCCAUGUAUUAUAGUUGGCG [salish99_SSNG1_r04_601] (Eterna round: R96, puzzle: Same State NG 1) |  |  |  |  | 438 nM |  |
| GCCAACUCAUGAGGAUAUGGCACCUUAUUGGUGCCAGAAGGCAUGUCAAUUGACAUGAGGAUCACCCAUGUAUUAUAGUUGGCA [Fiskers NG1ss - 22] (Eterna round: R96, puzzle: Same State NG 1) |  |  |  | 62.5 nM | 267 nM | 489 nM |
| GCCAUCGAGUGAGGAUAUGGCACCGAAACGGUGCCAGAAGGCAUGUCAAUUGACAUGAGGAUCACCCAUGUAUUAUCGAUGGCA [Mat - Same State NG 1 - JL mod - D87] (Eterna round: R96, puzzle: Same State NG 1) |  |  |  | 154 nM | 726 nM | 1690 nM |
| GCCCAUAGUAUAUGGGUACAAGCUUUUUGACAUGAGGAUCACCCAUGUACUCGUCUUAUGUGCAGUCCGUAGACUGC [JL-shm-2.18 Brourd mod] (puzzle: Sensor for hsa-mir-208a) | 61.9 nM | 15.3 nM | 66.6 nM |  |  |  |
| GCCGCGUUUCGCGCCUACAUGAGGAUCACCCAUGUUUGUGGGCAGGAUAUCGUCCGCUCUGCGGGCGAGAAGGGCUGUUGUGGU [salish99_SSNG3_R04_026] (Eterna round: R96, puzzle: Same State NG 3) |  |  |  |  | 40.9 nM |  |
| GCCGCGUUUCGCGCCUACAUGAGGAUCACCCAUGUUUGUUGGCAGGAUAUCGUCCGCUCUGCGGGCGAGAAGGGCUGUUGUGGU [salish99_SSNG3_R04_025] (Eterna round: R96, puzzle: Same State NG 3) |  |  |  | 38.4 nM | 18 nM | 25.4 nM |
| GCCGGACCGGAAGGAUAUGUUCCCGGUGCAGCGGGAGACAUGAGGAUCACCCAUGUACUAUAACGACAGAAGGUCCAACCAGCG [Eternabot solution 21] (Eterna round: R96, puzzle: Same State NG 2) |  |  |  | 18.7 nM | 16.4 nM | 22.5 nM |
| GCCGGCUGAUGAGGAUAUGGCACCUUAUUGGUGCCAGAAGGCAUGUCAAUUGACAUGAGGAUCACCCAUGUAUUAUAGUUGGCG [salish99_SSNG1_r04_604] (Eterna round: R96, puzzle: Same State NG 1) |  |  |  | 117 nM | 233 nM | 326 nM |
| GCCGGCUGGUGAGGAUAUGGCACCUUAUUGGUGCCAGAAGGCAUGUCAAUUGACAUGAGGAUCACCCAUGUGUUGUCGUUGGCG [salish99_SSNG1_r04_609] (Eterna round: R96, puzzle: Same State NG 1) |  |  |  | 698 nM | 72.4 nM | 742 nM |
| GCCGUAAUAACAUGAGGAUCACCCAUGUGCGCGAGAGUGGAUGAGGAUAUCGAUGGGUUUCCCGUCGAGAAGGCGUGGGUCGGC [JL SSNG3 3.98] (Eterna round: R96, puzzle: Same State NG 3) |  |  |  | 28 nM | 24.5 nM | 38.5 nM |
| GCGAAGAGGUAAGGAUAUGCAUGGCGGAGACAUGAGGAUCACCCAUGUUGGAGACGAAAUCUAGGGUAGAAGGUACCAGGAAGC [AK SSNG2-V2-12] (Eterna round: R96, puzzle: Same State NG 2) |  |  |  | 61.9 nM | 52.6 nM | 72.1 nM |
| GCGAGCGUACUUGCUACAUGAGGAUCACCCAUGUUUUAUGGACAGGAUAUGGUACCGUUUCGGUACCAGAAGGGUCCACAUGUA [JL SSNG3 3.84] (Eterna round: R96, puzzle: Same State NG 3) |  |  |  | 130 nM | 579 nM | 453 nM |
| GCGAGUGCCACAGGAUAUUCGGCUGUUUCGCUCGAAGAAGGGUGCCGCAUGCAAUAAAGAAAACAUGAGGAUCACCCAUGUGAA [Uszavege] (Eterna round: R96, puzzle: Same State NG 1) |  |  |  | 527 nM | 217 nM | 418 nM |
| GCGGAACGGGCCGACAUGAGGAUCACCCAUGUGCCCUCAUGUAAGGAUAUCGGGAAGAAGAAAACCGAGAAGGUACGGUGACGC [AK SSNG3-V2-30] (Eterna round: R96, puzzle: Same State NG 3) |  |  |  | 945 nM | 51.5 nM | 137 nM |
